Test [1] addresses T1, HA-tagged wild-type PKC iota (UniProt P41743 1-596).
T1 sequence (looked up): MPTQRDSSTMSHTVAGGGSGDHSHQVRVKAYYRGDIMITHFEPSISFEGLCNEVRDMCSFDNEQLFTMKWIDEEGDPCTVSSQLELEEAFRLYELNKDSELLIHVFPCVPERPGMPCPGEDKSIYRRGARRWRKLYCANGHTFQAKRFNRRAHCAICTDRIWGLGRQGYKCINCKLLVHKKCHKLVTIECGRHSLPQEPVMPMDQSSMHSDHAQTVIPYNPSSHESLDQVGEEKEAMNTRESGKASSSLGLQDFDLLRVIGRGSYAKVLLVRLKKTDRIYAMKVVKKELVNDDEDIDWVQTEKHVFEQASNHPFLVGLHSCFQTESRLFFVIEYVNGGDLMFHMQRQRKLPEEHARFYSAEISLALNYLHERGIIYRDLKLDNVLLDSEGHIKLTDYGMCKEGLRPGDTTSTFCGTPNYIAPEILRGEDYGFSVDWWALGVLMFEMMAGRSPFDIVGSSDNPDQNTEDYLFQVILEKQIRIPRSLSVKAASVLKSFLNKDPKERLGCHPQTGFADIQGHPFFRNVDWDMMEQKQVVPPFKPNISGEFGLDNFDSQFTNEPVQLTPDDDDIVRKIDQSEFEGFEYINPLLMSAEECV
Put plainly: co-IP.

In test [2] the target is HA-tagged kinase-inactive PKC iota (UniProt P41743). Nature of the test: co-IP.

The text below walks through data of paper PMC4045628 (CellBio, 2014).

B1: PAR-6B (natural protein, rat (endogenous in PC12), UniProt D4A2F2 1-372, looked up)
chain: MNRGHRHGVSSGCLGTMEVKSKFGAEFRRFSLERSKPGKFEEFYGLLQHVHKIPNVDVLVGYADIHGDLLPINNDDNYHKAVSTANPLLRVFIQKKEEADYSAFGTDTLIRKKNVLSNVLRPDNHRKKPHIVISMPQDFRPVSSIIDVDILPETHRRVRLYKYGTEKPLGFYIRDGSSVRVTPHGLEKVPGIFISRLVPGGLAQSTGLLAVNDEVLEVNGIEVSGKSLDQVTDMMIANSRNLIITVRPANQRNNVVRNSRTSGSSGQSTDNSLLGYPQQAGASLEPEDQDSDEDDIIIEGSGEPQQIPKATPEALSLESLTQIELSFESGQNGFSPLQDTSLVAVPSSLDTESESRAPDQKLLEEDGTIITL
With B1, the “fold co-immunoprecipitated relative to PAR-3” value was about 10 fold in test [1] and 10 fold in test [2].
